Paper doi:10.1101/2025.08.01.667725 (bioRxiv, 2025)

Biological target: T1, FLAG-tagged full-length PU.1, purified (human, UniProt P17947 1-270)
T1 construct: PU.1 transcription factor, full length; also called FLAG-PU.1; purified PU.1; source: 293-ExpiF (Expi293TF) cells, transfected with pCAG, purified (FLAG M2 beads, anion exchange, size exclusion)
Assay: MST; SMARCD2 SWIFT domain and PU.1; Kd model fit
Conditions: both partners purified

B1: SMARCD2 SWIFT domain, purified from E. coli (domain or fragment, human)
chain: LTQKRKLRIYISNTFSPSKAEGDSAGTAGTPGGTPAGDKVASWELRVEGKLLDDPSKQKRKFSSFFKSLVIELDKELYGPDNHLVEWHRMPTTQETDGFQVKRPGDLNVKCTLLLMLDHQPPQYQHPDPIVINHVISVDPNDQKKTACYDIDVEVD
notes: SMARCD2, human, stretch of the SWIFT domain before the SWIB domain; the text gives aa185–312; also called SMARCD2 YEATS-like SWIFT domain; source: E. coli (pGOOD), purified
**Q.** Which Kd does the source give for B1 here?
**A.** 3.6 µM
